# Assay results taken from IntAct's records for PubMed 22382979.
# B1: ATP-dependent DNA helicase SRS2 (Saccharomyces cerevisiae), P12954 (parent)
# chain: MSSNNDLWLHLVSQLNTQQRAAALFDYTRGLQVIAGPGTGKTKVLTSRVAYLILHHHIHPRDIIVTTFTNKAANEMKERLQEMLRGAGVNISELLIGTFHSICLKILYRFGHLVDLQKDWRIIDEKEIDVILDDMIEKVPDQIRDYASSITRKVNLCMPSKNGDEWTIHPKLIKKQISKLKSNAILPEEYILDSNHDAALGYFYQIYQSELSKKNTLDFDDLLMYTFRLLTRVRVLSNIKHVLVDEFQDTNGIQLDLMFLFAKGNHHLSRGMTIVGDPDQSIYAFRNALAHNFLEMGRKCPIEYSTIILVENYRSSQKILNTSEILITQQNKGRQNRAPLRAQFDLDFPPVYMNFPAYFLEAPSLVRELLYLKALPNLFTFNDFAILVRQRRQIKRIESALIEHRIPYKIIRGHSFWDSKETRAMLNLLKLIFSPNDKHAILASLLYPARGLGPATGEKIKNALDTLATDVSCFQILKDISSKKIMLDIPTKGRSVIADFISMIENCQLLLQSTLLGGLSDLFDKLYELSGLKYEYLYKDGKKKNDQLEKSEPNLLNARHKNIELLKNYFLALLSKSESSDKEKNEAIKAATDEAEPIENKVITPKEYLRNFFNSLSLHSDAAEEEESESNKDAKIKREKNGFVTISTIHGAKGLEWPVVFIPGCEEGIIPCVFNDDKKDESEEDEEEDQENSKKDASPKKTRVLSVEDSIDEERRMFFVAQTRAKYLLYLSNTVTVEDVDRPRIASRFLTTDLIKAMSDSQKLFESTNSIKKLYRILNKKPPAEDDKLFSLDQLRKDYNQFIENRRERMIWQGIQMNDVYGIQLSRNKLLGSVSDFTSAADQLRLETQNSIFPQKKLIEKSRPSKINGNYAPKSRVKSPEKRYAPETTSFHSPTKKKVYAPQYVSTTNVPSRQEFHSSTGKNIPFLRREDRSITDISPRSSTRSLKGASPNKTSHMSDDLMRPSPTRKDKVTRNIHFATAGTFRIETQSNVDELHPPEYSNKSGQSLTSSEFSGFSSACSNSDQPTNLIEDINNELDLSDEELLNDISIERRRELLGSKKTKKIKPKTRNRKSKRGDKVKVEEVIDLKSEFEEDDSRNTTAAELLHNPDDTTVDNRPIISNAKFLADAAMKKTQKFSKKVKNEPASSQMDIFSQLSRAKKKSKLNNGEIIVID
# B2: Proliferating cell nuclear antigen (Saccharomyces cerevisiae), P15873 (parent)
# chain: MLEAKFEEASLFKRIIDGFKDCVQLVNFQCKEDGIIAQAVDDSRVLLVSLEIGVEAFQEYRCDHPVTLGMDLTSLSKILRCGNNTDTLTLIADNTPDSIILLFEDTKKDRIAEYSLKLMDIDADFLKIEELQYDSTLSLPSSEFSKIVRDLSQLSDSINIMITKETIKFVADGDIGSGSVIIKPFVDMEHPETSIKLEMDQPVDLTFGAKYLLDIIKGSSLSDRVGIRLSSEAPALFQFDLKSGFLQFFLAPKFNDEE
# partner: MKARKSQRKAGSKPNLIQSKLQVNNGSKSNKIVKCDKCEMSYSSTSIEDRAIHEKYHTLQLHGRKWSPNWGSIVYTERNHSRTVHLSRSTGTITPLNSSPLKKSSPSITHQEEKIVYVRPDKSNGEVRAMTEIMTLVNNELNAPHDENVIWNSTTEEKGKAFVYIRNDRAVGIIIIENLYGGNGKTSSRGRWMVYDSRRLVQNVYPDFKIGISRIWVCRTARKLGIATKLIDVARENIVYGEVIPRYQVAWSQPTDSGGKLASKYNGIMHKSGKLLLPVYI
# B3: Proliferating cell nuclear antigen (Saccharomyces cerevisiae), P15873 (parent)
# chain: B2 chain
# Variants of: B1
# Details: with pcna_yeast POL30, P15873
row,effect of a mutation on the interaction,Variant
1,decreasing interaction,Q1155E
2,decreasing interaction,L1156A
3,decreasing interaction,I1152A
4,decreasing interaction,Q1149E;I1152A
5,decreasing interaction,Q1149E
6,decreasing interaction,I1152A;L1156A
7,decreasing interaction,D1151A
8,decreasing interaction,F1153A

# Variants of: B1
# Details: with smt3_yeast SMT3, Q12306
# smt3_yeast SMT3, Q12306, sequence (Q12306 whole entry): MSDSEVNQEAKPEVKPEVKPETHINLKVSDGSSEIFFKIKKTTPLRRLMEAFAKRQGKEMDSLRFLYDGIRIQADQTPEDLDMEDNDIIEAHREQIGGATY
row,effect of a mutation on the interaction,Variant
1,decreasing interaction,L1156A
2,decreasing interaction,I1152A
3,decreasing interaction,Q1149E;I1152A
4,decreasing interaction,I1152A;L1156A

# Variants of: B2
# Details: with eco1_yeast ECO1, P43605
row,effect of a mutation on the interaction,Variant
1,decreasing interaction,F125A;L126A;K127A;I128A

# Variants of: B3
# Details: with srs2_yeast SRS2, P12954
row,effect of a mutation on the interaction,Variant
1,decreasing interaction,F125A;L126A;K127A;I128A
